Experimental data as given in US20250197467A1.

Biological target: His-tagged human IL-18BP (human) (UniProt O95998)
Assay: AlphaLISA of free IL-18BP

Sequence of His-tagged human IL-18BP (human) (O95998 31-194): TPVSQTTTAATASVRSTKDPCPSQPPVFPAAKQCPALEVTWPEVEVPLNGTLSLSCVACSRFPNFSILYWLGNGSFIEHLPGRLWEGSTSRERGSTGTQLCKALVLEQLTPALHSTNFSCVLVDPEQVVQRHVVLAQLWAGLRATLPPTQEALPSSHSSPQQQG

Binder	Kd [nM]
C326 (ligand) MAAEPVEDNSINFVAMKFIDNTLYFIAEDDENLESDRGRRVANPLGLAGSGYFGKLKSKLSIIRNLNDQVLFIDQGNRPLFEDMTDSDARDNAPRTIFIISMYADSQPRGMAVAISVKCEKISTLSAENKIISFKEMNPPDNIKDTKSDIIFFQRSVPGHDNKMQFESSSYEGYFLAAEKERDLFKLILKKEDELGDRSIMFTVQNED	2100
C318 + Matriptase (ligand) MAAEPVEDNSINFVAMKFIDNTLYFIAEDDENLESDSGRVANYFGKLKSKLSIIRNLNDQVLFIDQGNRPLFEDMTDSDARDNAPRTIFIISMYADSQPRGMAVAISVKCEKISTLSAENKIISFKEMNPPDNIKDTKSDIIFFQRSVPGHDNKMQFESSSYEGYFLAAEKERDLFKLILKKEDELGDRSIMFTVQNED	586
C325 + MMP9 (ligand) LAGGSGYFGKLKSKLSIIRNLNDQVLFIDQGNRPLFEDMTDSDARDNAPRTIFIISMYADSQPRGMAVAISVKCEKISTLSAENKIISFKEMNPPDNIKDTKSDIIFFQRSVPGHDNKMQFESSSYEGYFLAAEKERDLFKLILKKEDELGDRSIMFTVQNED	158
C323 (ligand) MAAEPVEDNSINFVAMKFIDNTLYFIAEDDENLESDRGRRVANLVGGSGYFGKLKSKLSIIRNLNDQVLFIDQGNRPLFEDMTDSDARDNAPRTIFIISMYADSQPRGMAVAISVKCEKISTLSAENKIISFKEMNPPDNIKDTKSDIIFFQRSVPGHDNKMQFESSSYEGYFLAAEKERDLFKLILKKEDELGDRSIMFTVQNED	8550
C325 (ligand) MAAEPVEDNSINFVAMKFIDNTLYFIAEDDENLESDRGRRPLGLAGGSGYFGKLKSKLSIIRNLNDQVLFIDQGNRPLFEDMTDSDARDNAPRTIFIISMYADSQPRGMAVAISVKCEKISTLSAENKIISFKEMNPPDNIKDTKSDIIFFQRSVPGHDNKMQFESSSYEGYFLAAEKERDLFKLILKKEDELGDRSIMFTVQNED	1880
C316 + Matriptase (ligand) MAAEPVEDNSINFVAMKFIDNTLYFIAEDDENLESDSGRVANLVGYFGKLKSKLSIIRNLNDQVLFIDQGNRPLFEDMTDSDARDNAPRTIFIISMYADSQPRGMAVAISVKCEKISTLSAENKIISFKEMNPPDNIKDTKSDIIFFQRSVPGHDNKMQFESSSYEGYFLAAEKERDLFKLILKKEDELGDRSIMFTVQNED	723
C326 + MMP9 (ligand) LAGSGYFGKLKSKLSIIRNLNDQVLFIDQGNRPLFEDMTDSDARDNAPRTIFIISMYADSQPRGMAVAISVKCEKISTLSAENKIISFKEMNPPDNIKDTKSDIIFFQRSVPGHDNKMQFESSSYEGYFLAAEKERDLFKLILKKEDELGDRSIMFTVQNED	139
C324 + MMP9 (ligand) YFGKLKSKLSIIRNLNDQVLFIDQGNRPLFEDMTDSDARDNAPRTIFIISMYADSQPRGMAVAISVKCEKISTLSAENKIISFKEMNPPDNIKDTKSDIIFFQRSVPGHDNKMQFESSSYEGYFLAAEKERDLFKLILKKEDELGDRSIMFTVQNED	36.5
